Test system: K4 kissing-loop RNA reporter
Experiment: apparent KD of K4 kissing-loop reporter; higher = weaker reporter binding
Details: Eterna round: R107
Protocol: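 RNA-MaP round R107: designed RNA switches with theophylline, tryptophan, arginine or FMN aptamers are transcribed on-chip within common flanks. They are titrated with a labelled K4 kissing-loop RNA reporter in RNA-MaP buffer (100 mM Tris pH 7.5, 80 mM KCl, 4 mM MgCl2), without ligand or with the indicated ligand. Median apparent KD per design.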

[1] = input ligand: theophylline 20 uM
[2] = input ligand: tryptophan 2.4 mM
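Note: bound reporter read as fluorescence of individual clusters on recovered sequencing chips by microscopy, with normalized cluster intensities fitted with a binding model.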

Sequence	apparent KD of K4 kissing-loop reporter (input ligand: FMN 200 uM) [nM]	apparent KD of K4 kissing-loop reporter (input ligand: arginine 13.2 mM) [nM]	apparent KD of K4 kissing-loop reporter (input ligand: none) [nM]	apparent KD of K4 kissing-loop reporter [1] [nM]	apparent KD of K4 kissing-loop reporter [2] [nM]
AAGCAGUCCCUUGUAGUCAUCGAAGAUGAACGAGGACCGGUACGGCCGCCACUCGGAGUGAUGUUCCGAAGGCUGCAAAAUAAAA [MatMod 19 - Jieux - Exclusion - Tryptophan A]	122	123	135	152	310
AAGGCCACGAGAAGGAGCGUGUUGUGGAGUGAUGUUCCAUUGUAGACCUAAGGUCUGCGAGCACAGGUAGGUCGCUCGUGGUCAA [whbob_SS_Arginine_B_2t150]	108	116	107	110	117
AAGGUAAGUGCAUACAAAGUGAUGUUUUGUCGAGGACCGGUACGGCCGCCACUCGCCCAGUUAAGUGACCGACGUCAACGAAUAA [theeternabot_exclusion_KL_Trp_A_21]	606	552	582	502	498
AAGUAAUUAAUAAUUUAUAUAAGUUAAACAGAGGAUAUGCAUUAUUGCAGAAGGCUGAAUGCAGUGAUGUUGCAAUGAUUAUUUA [JR_SSFMNA_Sub001]	18.9	84.7	58.3	116	60.8
AAGUGAUGUUGUAGUGAUGUUGUGAUGUUGCAGGAUAUAUAGUGAUGUAGAAGGGUAAGUACUUAUUUUUUUUUUGAGUUAUGUU [crrczrmullin]	85.5	33	62.8	45.9	65.4
AAGUGAUGUUGUAGUGAUGUUGUGAUGUUGCAGGAUAUAUAGUGAUGUAGAAGGGUAUGUGCAGUUUUAUUUUUUGAGUGUUGAU [ttytmullin]	72.1	31	54.8	42.2	58.1
AAGUGAUGUUGUAGUGAUGUUGUGAUGUUGCAGGAUAUAUAGUGAUGUAGAAGGGUAUGUUCAGUUUUUUUUUUUGAGUGUUGAU [szxmullin]	84.3	35.3	62.8	47.6	66.5
AAGUGUGUGGCGGCCGCCACUAGAAUCCAGUGAUGUUGGAGUUAUCAAAUAAAUGAUAAUCAACAUAGGACCGGGCCAUAUAGAA [Same State - Tryptophan B (Freestyle 4)]	690	430	626	523	469
AAUAAAAUCACGGCCGCCACUGAUUAGCAUAUUAGGAGUGAUGUUUCUAUGACUAUAUAAUUGAACAGGACCGGGUGAAUAUUUA [#20 K4 Tryptophan B Exclusion]	424	294	417	314	400
AAUAAGGUCGCCGAUACCAGCGCAGGCAGAGCAAAGCUCUGCCAGGUAGUGAUGUUACCGCGCCCUUGGCAGCGGUGGCACGACC [Omei KL Theo B SS C v2]	523	357	516	459	579
AAUAAUGAUGUUUAGGAUUUCCGAAUGGAAGGAGCGUGCGAAAGCACAGGUAGGUCGCCAGUGAUGUUGGGACCUGAGCAUCAAA [#SwitchBubble 6 #K4Late]	681	514	703	807	629
AAUAGAUCAUUAUAGUGAUAAAUGCCUGAUACCAGUGAGAGAUGGCACCCUUGGCAGCAGAGAUGAGUGAUGUUCAGACUGUAAA [theeternabot_sameState_KL_Theo_A_11]	114	118	104	123	91
AAUAUAGUGAUGUUAUAUAAGAAGGAGUUACGAGGACCGGUACGGCCGCCACUCGAAACGAGUGAGGGUUUGGGAGAUUGGGCCC [SSTryptA.J]	493	310	451	322	384
AAUAUAGUGAUGUUAUAUAAGGAAAGAAGGCGAGGACCGGUACGGCCGCCACUCGAAAGGUGAGAAGGUGGCGAAGAAGAAAGAA [ExTryptoA.B]	312	280	331	433	377
AAUGUACAAGUGAUGUUUGUACUUUCCGAAGGAGCGUCUAAUAAGACAGGUAGGUCGCGGAUUCUCUAAAUUAUCAGGUCAUUAA [JR_ExcArginiA_Sub018]	91.8	85.4	94.3	85.6	87.4
AAUGUACAGGGAAGGAGCGUCGUCCAGUGAUGUUGGAGUUAAAUACCAGUGAUGUUGGUUAGACAGGUAGGUCGCCCUAAAGUGC [Exclusion Arginine B Gf 3]	104	80.2	92	95	88

Sequence	apparent KD of K4 kissing-loop reporter (input ligand: FMN 200 uM) [nM]	apparent KD of K4 kissing-loop reporter (input ligand: arginine 13.2 mM) [nM]	apparent KD of K4 kissing-loop reporter (input ligand: none) [nM]	apparent KD of K4 kissing-loop reporter [1] [nM]	apparent KD of K4 kissing-loop reporter [2] [nM]
AAUUAAUACAGAAGGAGCGUGAAAUUAUCUAUUUUUUUUUUAGCUAGUGAUGUUAGCAUUUCACAGGUAGGUCGCUGUAUAUUUA [JR_SSArginiB_Sub009]	148	142	166	149	138
AAUUUAUAUUUAUUCUUUAAAUGUUCAGAAGGAGCGUGAAUUAUCACAGGUAGGUCGCUGGGCUAGUGAUGUUGGCUAUAUACUA [whbob_Ex_Arginine_A_2t125]	150	186	162	196	124
AAUUUAUUAACUGAUACCAGACUUUAGCGCGUUUAUAAGUCAAGUGAUGUUUGACUAAUUGUCCCUUGGCAGCAGUAUUUAUUAA [JR_SSTheophyB_Sub021]	233	210	216	157	197
ACAGGAAUCUUUGAUACCAGAACCCGUCUACCUCCAUCCUUGGAGCAUAGUGAUGUUGUGUUCCCUUGGCAGCAAUAGGGCACAU [theeternabot_exclusion_KL_Theo_B_34]	711	498	632	597	644
ACAGGAUCGAAAGAUCCUGAGCAGUCAAAACGAGGACCGGUACGGCCGCCACUCGAAUAAGAGAGUGAUGUUCUCGACUGCAAAA [Omei inspired 10 - Reversed #K4Late]	939	826	1210	1050	223
ACAGGAUCGAAAGAUCCUGAGCAGUCUAACCGAGGACCGGUACGGCCGCCACUCGGAGUGAUGUUCCGAGGACUGCAAAAUAAAA [#SwitchBubble 2 #CoaxialStacking]	330	305	298	329	795
ACAGGAUCGAAGAUCCUGAGCAGUCAGGUCCGAGGACCGGUACGGCCGCCACUCGGAGUGAUGUUCCGAAGACUGCAAAAUAAAA [#SwitchBubble 4]	853	455	1110	968	338
ACAUGAGUGAUGUUCAUGUGGAGCAGGGUACGAGGACCGGUACGGCCGCCACUCGAGAGUUAUGACGAGUUAAUGGCAACGAUGU [KL-Tryp-A8 #analogue]	122	90.2	98.8	96.3	103
ACAUGUUCCAGUGAUGUUGGCGUACGUGAUACCAGACGAAUAAAAGUCCCUUGGCAGCACAAAUAAGCCAAGAUAGGUGAAUGAU [#04 K4 Theophylline A Exclusion]	403	272	495	538	405
ACCAUCAAAGAUGGCCAGGACUCCGCUGAUACCAGUGUGAAAACACUCCCUUGGCAGCAGGUGAGUGAUGUUCACAGUCCAUGGA [Omel KL Theo A SS B v3]	145	116	150	146	143
ACCCGUAGGAUACGGAGGUGUAAAUGGGUAUAGGAUAUCUAGAAAUAGAGAAGGAUACCAGUGAUGUUGGUUCCGUAUAUCUUAA	272	137	105	90	119
ACCCUACUCGGGCGGCUAUACAGUUAAGCUAAGGAUAUGUAUUCGUACAGAAGGUAGAAGAAGCCGAGUGAUGUUCGACACGCCC [theeternabot_sameState_KL_FMN_A_24]	557	386	544	293	413
ACCUACGAUCACAAAAGUGAUUGUAGGAUCUAGGAUAUGCUGAAGAGCAGAAGGAGAGUGAUGUUCUCAUCUCACGAAAGUGAGA [whbob_Ex_FMNA__2th189]	408	189	216	263	201
ACCUGUAGCAGAAGGAGCGACAGUUAUUCUGAUAGAACUCUGAGUGAUGUUCAGAACAACUGUCAGGUAGGUCGCUGAUACAGGU [Arg B Ex t8a]	577	370	560	512	583
ACCUGUGACUGAAGGAGCGUCUACUCCAGAGGAUGGAGUGAUGUUCCACUUUAAUGGAGUGGACAGGUAGGUCGCAGUCAUAGGA [Arg B SS t6]	126	94.5	108	88.7	115
ACCUUUUUUGCCAGUGAUGUUGGACAGGAAGGAGCGGGCAUAAGCCCAGGUAGGUCGCCUGUCAACUUUCUUAUAGCCCUAAGGU [KL-XArg-A17]	365	270	507	479	349

From the supplement of paper PMC9170038
